Assay results reported in patent US20130302348A1 (MIT, published 2013).

Biological target: biotinylated H5 (A/Vietnam/1203/2004) HA polypeptide (influenza virus A/Vietnam/1203/2004, UniProt Q8QPL1 17-531)

B1: exemplary antibody (VH-1 combined with VL-1; Table 4) (antibody, V domains shown)
VH: EVQLLESGGGLVKPGQSLKLSCAASGFTFTSYGMHWVRQPPGKGLEWVAVISYDGSYKYYADSVQGRFTISRDNSKNTLYLQMNSLRAEDTAVYYCAKDSELRSLLYFEWLSQGYFNPWGAGTTLTVSS
VL: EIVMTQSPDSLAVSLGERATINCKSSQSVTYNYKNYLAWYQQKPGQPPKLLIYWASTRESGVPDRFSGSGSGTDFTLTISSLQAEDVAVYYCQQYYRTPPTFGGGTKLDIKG
notes: also called exemplary influenza antibody
B1 showed a Kd of 30 pM, a koff of 7.38e-06 s⁻¹ and a kon of 247000 M⁻¹ s⁻¹.
